From the DeepSol protein solubility set come the findings set out here.

This data set is described as follows: soluble on expression in E. coli; label from the status in PepcDB or PDB records.
On to “MSLSIWGLVNEEDAEIDEDDLSKQEDGGEQPLRKVRTLAQSKPSDKEVILKTDGTFGTLSGKDDSIVEEKAYEPDLSDADFEGIEASPKLDVSKDWVEQLILAGSSLRSVFATSKEFDGPCQNEIDLLFSECNDEIDNAKLIMKERRFTASYTFAKFSTGSMLLTKDIVGKSGVSIKRLPTELQRKFLFDDVYLDKEIEKVTIEARKSNPYPQISESSLLFKDALDYMEKTSSDYNLWKLSSILFDPVSYPYKTDNDQVKMALLKKERHCRLTSWIVSQIGPEIEEKIRNSSNEIEQIFLYLLLNDVVRASKLAIESKNGHLSVLISYLGSNDPRIRDLAELQLQKWSTGGCSIDKNISKIYKLLSGSPFEGLFSLKELESEFSWLCLLNLTLCYGQIDEYSLESLVQSHLDKFSLPYDDPIGVIFQLYAANENTEKLYKEVRQRTNALDVQFCWYLIQTLRFNGTRVFSKETSDEATFAFAAQLEFAQLHGHSLFVSCFLNDDKAAEDTIKRLVMREITLLRASTNDHILNRLKIPSQLIFNAQALKDRYEGNYLEGHHHHHH”, for which the “soluble on expression in E. coli” value is “not soluble”.

“MIIDGHTHVILPVEKHIKIMDEAGVDKTILFSTSIHPETAVNLRDVKKEMKKLNDVVNGKTNSMIDVRRNSIKELTNVIQAYPSRYVGFGNVPVGLSENDTNSYIEENIVNNKLVGIGELTPASGQIKSLKPIFKYSMDSGSLPIWIHAFNPLVLQDIKEIAELCKAFPKVPVILGHMGGSNWMTAVELAKEIQNLYLDTSAYFSTFVLKIVINELPLKCIFGTDMPFGDLQLSIEAIKKMSNDSYVANAVLGDNISRLLNIMAGDPLEHHHHHH”: the “soluble on expression in E. coli” value was “not soluble”. The value for “MVVPLKRIDKIRWEIPKFDKRMRVPGRVYADEVLLEKMKNDRTLEQATNVAMLPGIYKYSIVMPDGHQGYGFPIGGVAAFDVKEGVISPGGIGYDINCGVRLIRTNLTEKEVRPRIKQLVDTLFKNVPSGVGSQGRIKLHWTQIDDVLVDGAKWAVDNGYGWERDLERLEEGGRMEGADPEAVSQRAKQRGAPQLGSLGSGNHFLEVQVVDKIFDPEVAKAYGLFEGQVVVMVHTGSRGLGHQVASDYLRIMERAIRKYRIPWPDRELVSVPFQSEEGQRYFSAMKAAANFAWANRQMITHWVRESFQEVFKQDPEGDLGMDIVYDVAHNIGKVEEHEVDGKRVKVIVHRKGATRAFPPGHEAVPRLYRDVGQPVLIPGSMGTASYILAGTEGAMKETFGSTCHGAGRVLSRKAATRQYRGDRIRQELLNRGIYVRAASMRVVAEEAPGAYKNVDNVVKVVSEAGIAKLVARMRPIGVAKG” was “soluble”. The value for “MDMDEKDVVETEEESFAELFEKSNSETQRLRPGSKVEGKILKIGAEWVFIDIGKKGEGVMERKELQDAEGNLTVAEGDTITAWFTGSVRNEMRFTTKLGAGAAANAQLEEAHRSGIPVEGFVVKEIKGGFEVRLSGTTRAFCPFSQISLRRAENPAEFVGKHLLFKVTEYSERGRNIVLSHRQILEEEQRVKREALKEVLLEGMTVTGTVTRLADFGAFVDLGGVDGLIPVSEVGWTRVKHVRDVLSVGEQVSVVIKKIDWEAGKISLSLKDTLADPWTTVAEQFPEGSYHTGTVARLAAFGAFVTLAPGIDGLIHISKLGKGKRINHPSDVLKEGETVEVKVDGVDREARRLSLALAEVSRAAEEEEKSVASFRQQATSSSKESMGSFGDLLKAKIEEKRLEHHHHHH” was “not soluble”; that for “MNDQRKKARNTPFNMLKRERNRVSTVQQLTKRFSLGMLQGRGPLKLFMALVAFLRFLTIPPTAGILKRWGTIKKSKAINVLRGFRKEIGRMLNILNRRRR” was “soluble”; that for “MGSDKIHHHHHHMLEKKARIADEAEIVDEAIVSRRSVRAFLPDMIDDDTIRDILEVAARAPSGTNMQPWRVYVTKGETKQQISDAILNSGIRAEKADWDEYRYYPTQFFEPYLTRRRANGFGLYGALGIGRREVDKMRAQHDRNFVFFDAPVGMIFTIDRRLNQGSWIDYGMFLQNIMVAARGRGLHTCPQAAFAPYHRQIRPVLNIPDEEIVVCGMALGYEDTSKPENAFRTDRVPLEEWVTFSE” was “not soluble”. As for “MSLSAPASEIAALILRGFDDYREQFREITDGARARFEQAQWQEAQRASAQRINLYEEKVAETVAGLRAGLADSELLDVERWPIIKSAYIAQIDLRLDDELAETWFNSIFCGLFSHDNISDGTMFVHTTRPSLRAHARAPYTRTYRPGGDLRQALEKIFDDYRFDVPYDDRERDLERIDALLHSNLPDWVCKDPDLAIELIGSVFYRNKGAYLVGRLFTPDEQWPLVFPLLHREDHGIQFDTVITDEAEVSIIFSFTRSYFMVDVPVPAELVAFLKRLLPGKHLAELYTSIGFYKQGKSEFYRALINHLATTDDRFVMAPGVRGMVMSVFTLPGFNTVFKIIKDRFNPSKSVDHATVIQKYQLVKNHDRVGRLADTQQFADFRFPVSKFEPECLAELLEVAPSTVVMEGDVVLIRHCWTERRMTPLNIYLENASEAQTREALNDYGLAIKQLAAANIFPGDMLLKNFGVTRHGRVVFYDYDEICYLTEVNFRYIPEPRFPEDEMSSEPWYSVGPNDVFPEEFPRFLFVDLNQRRLFAKLHGNLYDAKYWQGLQEQIREGKVIDVFPYRRQETPEQLLEGHHHHHH”, the “soluble on expression in E. coli” value is recorded as “soluble”. For “MTIHIDFLDETNEVTAEQIETIERLLAEAAALENVPDGAEVSVTFVDNERIRAMNRDYRGKDAPTDVLSFALEEEGEEEVHIVGADMPPVLGDIVISIPKAKEQAAAYGHSFMRELGFLAVHGFLHLLGYDHGTEEEERVMFAKQEDILARFGLTR” the value was “not soluble”; for “MRDIVFIERDPYAPIRHCYTVSKILYQGKSPYQEIQVIESPEFGRMLILDGVVQLDEKYEFLYHEYLAHVPLHAHPNPRNVLIIGGGDGGTLREVLKHDIVERAVLVDIDKEVIEVSKKYLPTLSVGFQDPRAIVVNEDGYKYVQDYENEFDVIIVDSTDPVGFAHVLTTEDFFRHVYKALKEDGIFVAQTESIHYHLEMVSNIQQRLKKVFPIVDLYTSVIPIYAGYWWTFSIASKKYPVRTPAREVKVQTKIYDADMHEYAFLPESFYNKIVNGEYKYLEHHHHHH”, “not soluble”. For “MARSRRDKNVSLTKVKKKTKDTKNNLVNEVRASVDQYKNLFIFTIANMRSTRFIAIRQKYKENSRFFFGKNNVISIALGKQKSDEYANQLHKASAILKGQCGLMFTNMSKKEVEAEFSEASEEDYARVGDVATETVVLPEGPISQFAFSMEPQLRKLGLPTKLDKGVITLYQQFEVCKEGEPLTVEQAKILKHFEVKMSQFRLIFKAHWNKKDGFKELDA”, the “soluble on expression in E. coli” value is “not soluble”. The value for “MELKILVTGGNVFVPGRLNAHFSTVVYLEHKDRRIIIDPGNLSSMDELEEKFSELGISPDDITDVLFTHVHLDHIFNSVLFENATFYVHEVYKTKNYLSFGTIVGRIYSKVISSWKNVVLLKGEESLFDEKVKVFHTPWHAREHLSFLLDTENAGRVLITGDITPNRLSYYDIIKGYGSVQVKNFLDRVGRIDLLVFPHDAPLKPEVKK” was “not soluble”; that for “MKRLTAKEEEIMGFFWEKGPLFVKEILAFYDEPRPHFNTLSTIVRGLEEKGFLAHHTYGNTYQYYAVVSESDFSKRTLKSVISKYFNNSYLSAVSSLVKEEDISLDDLKKLIQEVEQKNEE” was “soluble”; that for “MPKIDLIIFDCDGVLVDSEYLAAQIGSQLLKKIGYEISPEELSARYAGLIFPDILKKVEQETGKPTSAHLIDQMSDLFRAQIKTELRAIDGIKEAIEAIQSHYPYCICSNARSTEIKEMLTIVDLYDFFDNKDKIFSAPEVGTKKTKPAPDVFLFAAQQLRVKPKNTIVIEDSIHGVHAATAAGMRVIGFTGGSHSYLGHSNALVEAGAETAIAKHAHLLEVLEAMAVWQDLP” was “not soluble”. The value for “MQEQLEKMFFLSAEFVEAVDARGMTEREKNVFFDTELFCKRYVKEVRPGEIGCTLSHQKCYRKLVESRDKYALILEDDIVIRHNIDTLVPEIEKLLNTDEPRVILLSGWYWYLGTKTIKQHYCLARVYDAFLTHAYIINREAASLLIEQRPFITADDWFYIRKKGVKLYAVLPHLLDQDWSGEYPTSINQEEKKRCPGLWKRKIEICFHSLLLKFLYIIKRFEKALEHHHHHH” was “not soluble”; that for “MGSDKIHHHHHHMGTDSEKAIPPKVSRAAAEWLVELHSGQVGKEVREQWQAWRAAHPDHERAWQHIEMLGERLGGLSSSLAHATMAPRGSLRRRRAIKTLAMLLFAGGSAWVVQEKTPWWQLSADYSTGIGEQRRIELEDGTVVDLNSSSAINVAYTQQQRILMLLRGEMHVATASESATARPFLIASDQGSVRAFGTRFVVRQLTNEKDSPIKVGVLEGAVEVAPSEMPARVRLQAGEQLSFTRHMVTPIEPVIPHDTAWLQRMLVADDMPLGEFLAELSRYRKGSLGCDHSIKHLKVSGTYPLDDTDKVIEMLQQSLNLQVRMLTRYWVRLMPPAA” was “not soluble”; that for “MGEKLELRLKSPVGAEPAVYPWPLPVYDKHHDAAHEIIETIRWVCEEIPDLKLAMENYVLIDYDTKSFESMQRLCDKYNRAIDSIHQLWKGTTQPMKLNTRPSTGLLRHILQQVYNHSVTDPEKLNNYEPFSPEVYGETSFDLVAQMIDEIKMTDDDLFVDLGSGVGQVVLQVAAATNCKHHYGVEKADIPAKYAETMDREFRKWMKWYGKKHAEYTLERGDFLSEEWRERIANTSVIFVNNFAFGPEVDHQLKERFANMKEGGRIVSSKPFAPLNFRINSRNLSDIGTIMRVVELSPLKGSVSWTGKPVSYYLHTIDRTILENYFSSLKNPKLREEQEAARRRQQRESKSNAATPTKGPEGKVAGPADAPMDSGAEEEKAGAATVKKPSPSKARKKKLNKKGRKMAGRKRGRPKK” was “soluble”. For “MSRLRIYTESGELIKDITDPKEIAEELQKINVLFERWRANAPLKENASDEEIINAYKHEIDRLINKYGFQSYDVIAMTPEHPKKDELRQKFLKEHTHSDFEVRYFVYGDGVFYLHPNDKVYILHCTAGDLISVPPNTKHWFDMGENPNFKCIRLFTTPEGWVAEYTGSDIAEKFPKYEEVVNGLEHHHHHH” the value was “soluble”. For the sequence “MTSFDAIVIGGGHNGLVAAATLAKAGRKVLVLEAESEVGGAARTEEFAPGFRVSSIAHLLNRLHPDVVKTLELETHGLQFARADFLPSAALSKDGPALMLHGAYGEVLTGASPSEQSAWKDLRAQLLRYAGILKPFLTRRPPDLAGMSLMETASLGQTALALKKLGKEDMRDFLRVLLMNVADLLDEQLRDDRLKGLLAFDATLGSHLGPRSPTSLLGLYYRLAGEAGGAAGAQVLPQGGMGAVVAAIRAAAEKAGVTIRTSVAAAKIIVEKGHAVGVTLGTGEELRARTVVSAINPATTFLDLVGPREIDTGFVRKVKNIRMKGDAAKLHLALDRSPQFTGADAAAHKGRLVIAPSPDHVERAFNPCKYGEFSPEPVLEITLPSLADPSLAPDGACVLSAVVQYAPYALKEGWAAGKPKFIKAVMAQLEAYAPGIGKSVVHAELLTPADIETRYRMPGGHWHHGELQADQMLISRPVSGWSGYDTPVEGLFLAGAGSHPGGGVSGAPGLNAARRIIAMKGLEHHHHHH”, the “soluble on expression in E. coli” value is reported as “soluble”.

Take “AIAVEVESDSVAERDRSSFLAGHDAIRLAKSCVDSPPERWYAALYQVYADLTKLRCWSNVEVVYSDSATFPTGLLGPLFEEDSMVQELHSAQCILGSERACFHVRCCIVGSPPSGRAINALSPQSETRTEERIITSRREPEVVIAVPMHAMLKLSNLDQALRMSSHIEGIVKNRHVADSSASTHSTDRQAGSRKSSVIFGFVDEDTTTAYYRIREGACESNDRREFSTDDIASCLAQERT”: the “soluble on expression in E. coli” value is recorded as “soluble”. For “MAHHHHHHMSSPERGASPPPAEEDKKEKRVIIILEGAHLQLIETKRYIYELANSMKHKHLLRDKKKEEEIRNFRPDILHQCLIHLLESALNKYGLLQVYIKTHDNQLFFVSSNLKIPKTYDQFESLMVTFLRKYKIKANEKNLCLLKFLKNDYNAILPINGKKIGLSVKGRKVHLPDYVQNFQNENMPVTFFIGAVAYSNPITKLENLDDNISISEFSLSAATCCSTICSEFENLWGVF” the value was “soluble”.
